Measurements as given in article PMC5588734, “In vitro oxidative decarboxylation of free fatty acids to terminal alkenes by two new P450 peroxygenases” (Biotechnology for Biofuels, 2017).

Substrate: CCCCCCCCCCCC(=O)O
Assay: initial rates of substrate consumption by GC, Hill fit
Format: biochemical, Alicyclobacillus acidocaldarius
Details: excess H2O2, pH 7.4, 28 °C, Hill n 2.1 ± 0.8
From the text: initial rates of substrate consumption by GC, Hill fit on CYP-Aa162

B1: CYP-Aa162 (Alicyclobacillus acidocaldarius LAA1) (protein)
chain: MNQCIPRDRTFDSSLALIKEGYLFIKNRVDQYQSDIFEARLLLENVVCMHGAEAAKLFYNTELFQRQGALPKRVQKTLFGENAIQTLDGTAHLHRKQLFLSLLTPDQEKSLATLATTQWRECAKVWENADRVVLFEEAKRMLCRIACQWTGVPLDESEVSKRADDFGAMVDAFGAVGPRHWKGRRARARAEAWLRQMIDEIRIGLRSVDEHTPLHVVAFWRDVNGNLLDAQMVAIELINLLRPIVAISTFITFSALALHEHPTWRDRLKARNEADIEMFVQEVRRYYPFAPFLGARVKKDFVWRGYEFKRGTLVLLDVYGTHHDARLWDSPNEFRPERFMRKTVGPFDLIPQGGGDSHTGHRCPGEGATIEIMKASVDFLVNQIDFEVPAQDLSYRLDVMPTLPKSGFVLTHVHRKFIASPTIATPNGSEALPSEV
K0.5: 93.1 ± 37.7 µM
kcat: 0.768 ± 0.285 s⁻¹
kcat/Km: 8330 M⁻¹ s⁻¹
